Molecular target: gp120 (HIV-1 strain YU2) (UniProt P35961)
Assay: SPR

Substance | Kd [nM]
b12 | 38.1

Molecular target: Du156.12
Assay: ELISA

Substance | EC50 [µg/mL]
3 (Heavy chain: A56G) | 0.101
4 (Heavy chain: V57T) | 0.164
5 (Heavy chain: P62K) | 0.066
6 (Heavy chain: V73T) | 0.097
7 (Heavy chain: Y74S) | 0.071
11 (Heavy chain: R61Q) | 0.086
12 (Light chain: Y30S) | 0.196

The remaining lines, values ahead:

EC50 [µg/mL] | Substance
0.048 | 1 (Heavy chain: T33Y)
0.063 | 8 (Heavy chain: I30T)
0.056 | 9 (Heavy chain: K52N)
0.063 | 10 (Heavy chain: R53N)
